Experimental data from the supplement of paper PMC11780869.

Tested on: Bacillus subtilis
Test: cleaved RNA product abundance (RNA/gDNA barcode ratio) relative to median wild-type variant (ratio to wild type); higher = more accumulation of the downstream cleavage product
How it was run: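 Truncated aprE or tetM reporter mRNAs with barcoded RNase Y cleavage-site windows, mutagenized from oligos at a 9% error rate, sat in the B. subtilis chromosome. Cells grew in LB at 37°C from OD600 0.0003 to 0.3. Gel-selected cleaved RNA was reverse transcribed and its barcodes sequenced with those from genomic DNA, collapsing by UMI. Cleaved product abundance equals the RNA:gDNA barcode ratio per construct over the median construct with the unmutated site.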

[1] = experiment (reporter, strain, medium): exp 6: tetM reporter, strain 168, cleavage site: cggR-gapA (positions -7 to +36 mutated)
[2] = experiment (reporter, strain, medium): exp 2b: truncated aprE reporter, strain BJT200, cleavage site: cggR-gapA (positions -7 to +36 mutated)
[3] = experiment (reporter, strain, medium): exp 4a: truncated aprE reporter, strain BJT201 with 2% xylose (RNase J1 expressed), cleavage site: cggR-gapA (positions -7 to +36 mutated)
[4] = experiment (reporter, strain, medium): exp 8a: truncated aprE reporter, strain BJT201 with 2% xylose (RNase J1 expressed), cleavage site: glnRA (positions -5 to +31 mutated)

| Sequence | cleaved RNA product abundance [3] | cleaved RNA product abundance [4] | also measured |
| --- | --- | --- | --- |
| ACAGACGAAGGAGCCTCAAAGAAGTTATTAAGTGATGAATAATCCCTCAATATAAATATCTCTCACTTATTTAAA |  |  | cleaved RNA product abundance [1]: 0.135 |
| ACAGACGAAGGAGCCGCAAAGAAGTTATTAAGTGATGAATAATCCGTCAATATAAATATCTCTCACTTATTTAAA | 0.0842 |  | cleaved RNA product abundance [2]: 0.103 |
| ACAGACGAAGGAGCCGCAAAGAAGTTATTAAGGGATGAATACTCCCTCAATATAAAAATCTCTCACTTATTTAAA | 0.819 |  | cleaved RNA product abundance [2]: 0.511 |
| ACAGACGAAGGAGCCGCAAATAAGTTATTAAGGGATGAATAAACCCTCAATATAAATATCTCTCACTTATTTAAA | 0.39 |  |  |
| ACAGACGAAGGAGCCGCAAAGAAGTTATTCAGGTATAAATAATCCCTCAATATAAATATCTCTCACTTATTTAAA | 0.118 |  |  |
| ACAGACGAAGGAGCCGCTAAGAAGTTATTAAGGGATGACTAATCCCTCAATATAAATATCTCTCACTTATTTAAA | 0.542 |  |  |
| ACAGACGAAGGAGCCGCAAAGATGTTATTATGGGATGAATAATCCCTCAATATAAATATCTCTCACTTATTTAAA | 0.343 |  |  |
| ACAGACGAAGGAGCCGCAAAGAAGTTATTAAGGGTTGAATAAGCCCTCAATATAAATATCTCTCACTTATTTAAA | 0.608 |  |  |
| ACAGACGAAGGAGCCGCAAAGAGGTTATTTAGGGATGAATAATCCCTCAATATAAATATCTCTCACTTATTTAAA | 0.527 |  |  |
| ACAGACGAAGGAGCCGCAAAGATGTTATTAAGGGAAGAATAATCCCTCAATATAAATATCTCTCACTTATTTAAA | 0.51 |  |  |
| ACAGACGAAGGAGCCGCAAAGAAGTTATTAAGGACTGAATAATCCCTCAATATAAATATCTCTCACTTATTTAAA | 0.0888 |  | cleaved RNA product abundance [2]: 0.0791 |
| ACAGACGAAGGAGCCGCAAAGAAATTATTAAGGGATGAATAATCCCTCAATATAAATTTCTCTCACTTATTTAAA | 0.361 |  |  |
| ACAGACGAAGGAGCCGCAAAGAAGTTATTTAGGGATGAATAATCCCTCAATTTAAATATCTCTCACTTATTTAAA | 0.119 |  |  |
| CGACATGTCCCGCTTCTTTCATTAATCCCTTAGCAACTGTTTTGCTAAATACATTTACCTTTTAAGAGGAGGAAT |  | 0.149 |  |
| CGACATGTCCCGCTTCTTTCATTAATTCGTTACCAACTGTTTTGCTATATACATTTACCTTTTAAGAGGAGGAAT |  | 0.231 |  |
| ACAGACGAAGGAGCCGCAAACAAGTTATTAAGGGATGAATAATCACTCAATATAAATATCTCTCACTTATTTAAA | 0.127 |  |  |
| CGACATGTCCCGCTTCTTTCATTAATCCGTTAGCAACTGTTCAGCTATATACATTTACCTTTTAAGAGGAGGAAT |  | 0.344 |  |
| CGACATGTCCCGCTTCTTTCATTAATCCGTTAGCAACTGTTTAGTTATATACATTTACCTTTTAAGAGGAGGAAT |  | 0.327 |  |
| CGACATGTCCCGCTTCTTTCATTAAACCGTTAGCAACTGTTTTGATATATACATTTACCTTTTAAGAGGAGGAAT |  | 0.428 |  |
| ACAGACGAAGGAGCCGCAAAGAAGTTACTAAGGGATCAATAATCCCTCAATATAAATATCTCTCACTTATTTAAA | 0.208 |  |  |
| ACAGACGAAGGAGCCGCAAAGAAGTTATTAAGGCATGAATAATCCCTCAATAAAAATATCTCTCACTTATTTAAA | 0.0606 |  |  |
| CGACATGTCCCGCTTCTTTCATTAATCCGTTAGCAACTGTTTTGCTATATACATTAGCCTTTTAAGAGGAGGAAT |  | 0.519 |  |
| ACAGACGAAGGAGCCGCAAAGAAGTTATTAAGGGATGAATAATCCTTCAATATAAATATCTCTCACTTATTTAAA | 0.576 |  | cleaved RNA product abundance [2]: 0.442; cleaved RNA product abundance [1]: 0.617 |
| CGACATGTCCCGCTTCTTTCATTAATCCGTTAGCAACTGTTTTGTGATATACATTTACCTTTTAAGAGGAGGAAT |  | 0.344 |  |

| Sequence | cleaved RNA product abundance [3] | cleaved RNA product abundance [4] | also measured |
| --- | --- | --- | --- |
| ACAGACGAAGGAGCCGCAAAGAAGTTATTAAGGGATGAATATTCCCTTAATATAAATATCTCTCACTTATTTAAA | 0.526 |  | cleaved RNA product abundance [2]: 1.01 |
| ACAGACGAAGGAGCCGCAAAGAAGTTATTCTGGGATGAATAATCCCTCAATATAAATATCTCTCACTTATTTAAA | 0.742 |  |  |
| CGACATGTCCCGCTTCTTTCATTAATCCTTTAGCCACTGTTTTGCTATATACATTTACCTTTTAAGAGGAGGAAT |  | 0.253 |  |
| ACAGACGAAGGAGCCGCAAAGAAGTTATTAAGGGATCAATAATCCCTGAATATAAATATCTCTCACTTATTTAAA | 0.61 |  | cleaved RNA product abundance [2]: 0.512 |
| CGACATGTCCCGCTTCTTTCATTAATCTGTTAGAAACTGTTTTGCTATATACATTTACCTTTTAAGAGGAGGAAT |  | 0.269 |  |
| ACAGACGAAGGAGCCGCTAAGAAGTTATTAAGGGATGAATAATCACTCAATATAAATATCTCTCACTTATTTAAA | 0.129 |  |  |
| ACAGACGAAGGAGCCGCAAAGAAGTTATTAAAGGATGAATAAACCCTCAATATAAATATCTCTCACTTATTTAAA | 0.101 |  | cleaved RNA product abundance [2]: 0.115 |
| CGACATGTCCCGCTTCTTTCATTAATCCTTTAGCAACTCTTTTGCTATATACATTTACCTTTTAAGAGGAGGAAT |  | 1.2 |  |
| CGACATGTCCCGCTTCTTTCATTAATCAGTTACCAACTGTTTTGCTATATACATTTACCTTTTAAGAGGAGGAAT |  | 0.267 |  |
| ACAGACGAAGGAGCCGCAAAGAAGTTATTAAGGGAAGAATAATCCGTCAATATAAATATCTCTCACTTATTTAAA |  |  | cleaved RNA product abundance [2]: 0.0722 |
| CGACATGTCCCGCTTCTTTCATTACTCCGTTAACAACTGTTTTGCTATATACATTTACCTTTTAAGAGGAGGAAT |  | 0.261 |  |
| ACAGACGAAGGAGCCGCAAAAAAGTTATTAAGGGATGAATAATCCCTCAATATAAATACCTCTCACTTATTTAAA | 0.493 |  |  |
| CGACATGTCCCGCTTCTTTCATTAATCCGTTTGCAACTGTTTTGCTATATACATTTACATTTTAAGAGGAGGAAT |  | 0.626 |  |
| ACAGACGAAGGAGCCGCAAAGTAGTTATTAAGGGATGAATAATCCCTCAATACAAATATCTCTCACTTATTTAAA | 0.0777 |  |  |
| ACAGACGAAGGAGCCGCAAAGAAGTTATTAAGTGATTAATAATCCCTCAATATAAATATCTCTCACTTATTTAAA | 0.0979 |  | cleaved RNA product abundance [2]: 0.112 |
| ACAGACGAAGGAGCCGCAAAGAAGTTATTAAGGTATGAATAATCCCTCATTATAAATATCTCTCACTTATTTAAA | 0.107 |  |  |
| ACAGACGAAGGAGCCGCAAAGAAGTTATTAAAGGATGATTAATCCCTCAATATAAATATCTCTCACTTATTTAAA | 0.184 |  | cleaved RNA product abundance [2]: 0.122 |
| ACAGACGAAGGAGCCGCAAAGAAGGTATTAAGGGATGAATAATCCCTCAATATAAATTTCTCTCACTTATTTAAA | 0.849 |  |  |
| CGACATGTCCCGCTTCTTTCATTAATCCGTTAGCAACTGTATTGCAATATACATTTACCTTTTAAGAGGAGGAAT |  | 0.678 |  |
| CGACATGTCCCGCTTCTTTCATTAATCCGTTAGCAACTGTTGTGCTAAATACATTTACCTTTTAAGAGGAGGAAT |  | 0.266 |  |
| ACAGACGAAGGAGCCGCAAAGAAGTTATTAAGGGATGATTAATCCCTCAATTTAAATATCTCTCACTTATTTAAA | 0.0965 |  |  |
| CGACATGTCCCGCTTCTTTCATTAATCCGTTAGAAACTGTTTTGCTATATATATTTACCTTTTAAGAGGAGGAAT |  | 0.272 |  |
| CGACATGTCCCGCTTCTTTCATTAATCCGTCAGCAACTGTATTGCTATATACATTTACCTTTTAAGAGGAGGAAT |  | 0.214 |  |
